Source: patent US20140294819A1 (NVIP, published 2014)
Numbering of substitutions follows the chain as printed.

Experiments:
[1] = biological target: T1, canine CD20 cyclic (oxidised, disulphide-bonded) peptide SEQ ID NO:2 (canine, disulphide bond between the two cysteine residues (corresponding to positions 167 and 183); N-terminal biotin in the streptavidin-plate assays); experiment: ELISA, purified antibody on cyclic CD20 peptide
T1 construct: Chemically synthesised and oxidised; also called C20; caCD20 peptide
T1 peptide: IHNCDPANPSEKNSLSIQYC
Experimental: (§1) The purified antibodies shown in FIG. 15 were tested for binding to cyclic CD20 peptides from different species by ELISA as above.

[2] = biological target: T2, human CD20 cyclic (oxidised) peptide SEQ ID NO:3 (human, disulphide bond between the two cysteine residues; biotinylated); experiment: ELISA, purified antibody on cyclic CD20 peptide
T2 construct: also called H20; human CD20 cyclic peptide
T2 peptide: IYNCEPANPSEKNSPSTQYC
Experimental: as §1

[3] = biological target: T3, murine CD20 cyclic (oxidised) peptide SEQ ID NO:6 (murine, disulphide bond between the two cysteine residues; biotinylated); experiment: ELISA, purified antibody on cyclic CD20 peptide
T3 construct: also called M20; mouse CD20 peptide
T3 peptide: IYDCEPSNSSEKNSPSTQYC
Experimental: as §1

[4] = biological target: T4, feline CD20 cyclised peptide SEQ ID NO:4 (feline, cyclised by a disulphide bond between the two cysteine residues); experiment: ELISA, purified antibody on cyclic CD20 peptide
T4 construct: also called feline CD20 peptide
T4 peptide: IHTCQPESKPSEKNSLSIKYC
Experimental: as §1

[5] = biological target: T2, human CD20 cyclic (oxidised) peptide …; experiment: ELISA on cyclised CD20 peptide
[6] = biological target: T3, murine CD20 cyclic (oxidised) peptide …; experiment: ELISA on cyclised CD20 peptide
[7] = biological target: T4, feline CD20 cyclised peptide SEQ ID NO:4; experiment: ELISA on cyclised CD20 peptide
[8] = biological target: T1, canine CD20 cyclic (oxidised, …); experiment: ELISA, hybridoma antibody on cyclic CD20 peptide
Text: (§2) Using a combination of cyclic human (SEQ ID NO:3) and canine (SEQ ID NO:2) CD20 peptides, monoclonal antibodies that would bind both human and canine peptides were screened for using conventional hybridoma screening of mice previously immunised with the cyclic canine CD20 peptide of FIG. 1, coupled to diphtheria toxoid at the amino terminus as a source of T-cell help. Two antibody hybridomas were selected, RA2 and RF2 and tested for binding to these as well as to murine (SEQ ID NO:6) and feline (SEQ ID NO:4) CD20 peptides. RA2 and RF2 bound strongly to canine CD20 and RF2 bound strongly to human CD20 peptide whereas RA2 binds more weakly. Unexpectedly RA2 and RF2 bound strongly to feline and also murine CD20 peptides.

[9] = biological target: T2, human CD20 cyclic (oxidised) peptide …; experiment: ELISA, hybridoma antibody on cyclic CD20 peptide
Text: as §2

[10] = biological target: T3, murine CD20 cyclic (oxidised) peptide …; experiment: ELISA, hybridoma antibody on cyclic CD20 peptide
Text: as §2

[11] = biological target: T4, feline CD20 cyclised peptide SEQ ID NO:4; experiment: ELISA, hybridoma antibody on cyclic CD20 peptide
Text: as §2

[12] = biological target: T1, canine CD20 cyclic (oxidised, …); experiment: ELISA, purified recombinant antibody on cyclic CD20 peptide
Text: (§3) The RA2 and RF2 variable heavy and light chain sequences (SEQ ID NO:23-26) were rebuilt as IgG2a/kappa antibodies by oligonucleotide-based gene synthesis, cloned into pcDNA3.3 vectors and co-expressed in appropriate pairs in CHO cells. The supernatant expressed antibodies were purified by Protein A chromatography and tested for binding by CD20 peptide ELISA (FIG. 11). Both purified recombinant forms of mouse RA2 and RF2 bound strongly to cyclic canine and feline CD20 peptides, and also to mouse and human CD20 peptides (the binding of RA2 to human CD20 peptide was more pronounced than with the corresponding hybridoma supernatant in FIG. 9).

[13] = biological target: T2, human CD20 cyclic (oxidised) peptide …; experiment: as above
Text: as §3

[14] = biological target: T3, murine CD20 cyclic (oxidised) peptide …; experiment: as above
Text: as §3

[15] = biological target: T4, feline CD20 cyclised peptide SEQ ID NO:4; experiment: as above
Text: as §3

Measured: binding result

B1: caninised RA2, HCB isotype (antibody)
heavy: EVQLVQSGGGLVKPTESLTISCVVSGFSLTNYGVHWVRQSPGKGLEWLGVIWSGGTTDYNAAFISRLSISKDNSKSTVFLRMNSLRADDTAIYYCARGPRKFYYYGMDYWGQGTSVTVSSASTTAPSVFPLAPSCGSTSGSTVALACLVSGYFPEPVTVSWNSGSLTSGVHTFPSVLQSSGLYSLSSMVTVPSSRWPSETFTCNVAHPASKTKVDKPVPKRENGRVPRPPDCPKCPAPEMLGGPSVFIFPPKPKDTLLIARTPEVTCVVVDLDPEDPEVQISWFVDGKQMQTAKTQPREEQFNGTYRVVSVLPIGHQDWLKGKQFTCKVNNKALPSPIERTISKARGQAHQPSVYVLPPSREELSKNTVSLTCLIKDFFPPDIDVEWQSNGQQEPESKYRTTPPQLDEDGSYFLYSKLSVDKSRWQRGDTFICAVMHEALHNHYTQESLSHSPGK
light: DIVMTQTPLSLSVSQEEEASISCRSSQSIVHSNGNTYLEWYLQKPGQSPKLLIYKVSNRFSGVPDRFSGSGSGTDFTLKISRVEAGDAGVYYCFQGLHVPLTFGAGTKLELKRNDAQPAVYLFQPSPDQLHTGSASVVCLLNSFYPKDINVKWKVDGVIQDTGIQESVTEQDKDSTYSLSSTLTMSSTEYLSHELYSCEITHKSLPSTLIKSFQRSECQRVD
notes: also called caRA2-B
binds: [1] | [2] | [3] | [4]

B2: caninised RA2, HCC isotype (antibody)
heavy: EVQLVQSGGGLVKPTESLTISCVVSGFSLTNYGVHWVRQSPGKGLEWLGVIWSGGTTDYNAAFISRLSISKDNSKSTVFLRMNSLRADDTAIYYCARGPRKFYYYGMDYWGQGTSVTVSSASTTAPSVFPLAPSCGSQSGSTVALACLVSGYIPEPVTVSWNSVSLTSGVHTFPSVLQSSGLYSLSSMVTVPSSRWPSETFTCNVAHPATNTKVDKPVAKECECKCNCNNCPCPGCGLLGGPSVFIFPPKPKDILVTARTPTVTCVVVDLDPENPEVQISWFVDSKQVQTANTQPREEQSNGTYRVVSVLPIGHQDWLSGKQFKCKVNNKALPSPIEEIISKTPGQAHQPNVYVLPPSRDEMSKNTVTLTCLVKDFFPPEIDVEWQSNGQQEPESKYRMTPPQLDEDGSYFLYSKLSVDKSRWQRGDTFICAVMHEALHNHYTQISLSHSPGK
light: B1 light
notes: See note of m19; also called caRA2-C
binds: [1] | [2] | [3] | [4]

B3: chimeric mouse-canine RA2, HCB isotype (antibody)
heavy: QVQLKQSGPGLVPPSQSLSITCTVSGFSLTNYGVHWVRQSPGKGLEWLGVIWSGGTTDYNAAFISRLSISKDNSKSQVFFKMNSLQADDTAIYYCARGPRKFYYYGMDYWGQGTSVTVSSASTTAPSVFPLAPSCGSTSGSTVALACLVSGYFPEPVTVSWNSGSLTSGVHTFPSVLQSSGLYSLSSMVTVPSSRWPSETFTCNVAHPASKTKVDKPVPKRENGRVPRPPDCPKCPAPEMLGGPSVFIFPPKPKDTLLIARTPEVTCVVVDLDPEDPEVQISWFVDGKQMQTAKTQPREEQFNGTYRVVSVLPIGHQDWLKGKQFTCKVNNKALPSPIERTISKARGQAHQPSVYVLPPSREELSKNTVSLTCLIKDFFPPDIDVEWQSNGQQEPESKYRTTPPQLDEDGSYFLYSKLSVDKSRWQRGDTFICAVMHEALHNHYTQESLSHSPGK
light: B1 light with I2V, V3L, S12P, Q15L, E16G, E17D, E18Q, A88L, K108R
notes: also called chiRA2-B; chimeric RA2
binds: [1] | [2] | [3] | [4]

B4: caninised RF2, HCB isotype (antibody)
heavy: B1 heavy with V24I, N31S, T56S, T57I, L80I, Y105F
light: B1 light with S28N, L38V, G86E, L97S
notes: also called caRF2-B
binds: [5] | [6] | [7] | [1]

B5: RA2 murine monoclonal antibody (hybridoma) (antibody, V domains shown)
VH: QVQLKQSGPGLVPPSQSLSITCTVSGFSLTNYGVHWVRQSPGKGLEWLGVIWSGGTTDYNAAFISRLSISKDNSKSQVFFKMNSLQADDTAIYYCARGPRKFYYYGMDYWGQGTSVTVSS
VL: DVLMTQTPLSLPVSLGDQASISCRSSQSIVHSNGNTYLEWYLQKPGQSPKLLIYKVSNRFSGVPDRFSGSGSGTDFTLKISRVEAGDLGVYYCFQGLHVPLTFGAGTRLELK
notes: Hybridoma supernatant; also called muRA2
binds: [8] | [9] | [10] | [11]

B6: RF2 murine monoclonal antibody (hybridoma) (antibody, V domains shown)
VH: B5 VH with V24I, N31S, K43W, T56S, T57I, F80I, Y105F
VL: B5 VL with L3V, S28N, L38V, G86E, L97S, R108K
notes: Hybridoma supernatant; also called muRF2
binds: [8] | [9] | [10] | [11]

B7: recombinant mouse RA2 (IgG2a/kappa) (antibody)
heavy: QVQLKQSGPGLVPPSQSLSITCTVSGFSLTNYGVHWVRQSPGKGLEWLGVIWSGGTTDYNAAFISRLSISKDNSKSQVFFKMNSLQADDTAIYYCARGPRKFYYYGMDYWGQGTSVTVSSAKTTAPSVYPLAPVCGDTTGSSVTLGCLVKGYFPEPVTLTWNSGSLSSGVHTFPAVLQSDLYTLSSSVTVTSSTWPSQSITCNVAHPASSTKVDKKIEPRGPTIKPCPPCKCPAPNLLGGPSVFIFPPKIKDVLMISLSPIVTCVVVDVSEDDPDVQISWFVNNVEVHTAQTQTHREDYNSTLRVVSALPIQHQDWMSGKEFKCKVNNKDLPAPIERTISKPKGSVRAPQVYVLPPPEEEMTKKQVTLTCMVTDFMPEDIYVEWTNNGKTELNYKNTEPVLDSDGSYFMYSKLRVEKKNWVERNSYSCSVVHEGLHNHHTTKSFSRTPGK
light: DVLMTQTPLSLPVSLGDQASISCRSSQSIVHSNGNTYLEWYLQKPGQSPKLLIYKVSNRFSGVPDRFSGSGSGTDFTLKISRVEAGDLGVYYCFQGLHVPLTFGAGTRLELKRADAAPTVSIFPPSSEQLTSGGASVVCFLNNFYPKDINVKWKIDGSERQNGVLNSWTDQDSKDSTYSMSSTLTLTKDEYERHNSYTCEATHKTSTSPIVKSFNRNEC
notes: also called muRA2
binds: [12] | [13] | [14] | [15]

B8: chimeric mouse-canine RF2, HCB isotype (antibody)
heavy: B3 heavy with V24I, N31S, K43W, T56S, T57I, F80I, Y105F
light: DVVMTQTPLSLPVSLGDQASISCRSSQNIVHSNGNTYVEWYLQKPGQSPKLLIYKVSNRFSGVPDRFSGSGSGTDFTLKISRVEAEDLGVYYCFQGSHVPLTFGAGTKLELKRNDAQPAVYLFQPSPDQLHTGSASVVCLLNSFYPKDINVKWKVDGVIQDTGIQESVTEQDKDSTYSLSSTLTMSSTEYLSHELYSCEITHKSLPSTLIKSFQRSECQRVD
notes: also called chiRF2-B; chimeric RF2
binds: [1] | [2] | [3] | [4]
